This experiment addresses T1, NS5A 347-361 (Hepatitis C virus, UniProt P26664).
T1 chain: PKSPPVPPPRKKRTV
The experiment can be described thus: fluorescence titration.

The source of these data is publication PMC4118443 (2014).

B1: Bin1 SH3 (protein)
chain: LPPGFMFKVQAQHDYTATDTDELQLKAGDVVLVIPFQNPEEQDEGWLMGVKESDWNQHKELEKCRGVFPENFTERVP
In turn, B1 gave a Kd of 200 nM.

Broadly, the Kd is the equilibrium constant for the complex coming apart. Low readings indicate a tighter complex, high ones a looser complex.
